Measured values reported in patent US20100068806A1, “NOVEL METHODS AND REAGENTS DIRECTED TO PRODUCTION OF CELLS” (SUOMEN PUNAINEN RISTI, VERIPALVELU, priority 2007, published 2010).
“Also recorded” adds a separate entry of the source.

Columns and labels:
hESC [1] = experiment: Fluorescein-labelled lectin staining of hESC colonies on mouse feeder layers; format: binding, human; design: key to lectin ligand profile, hESC: + present in cell surface; − not present in cell surface; settings: for inhibition of lectin binding to hESC by carbohydrate: MAA or PSA binding
Protocol: (§1) Lectin staining. Fluorescein-labeled lectins were from EY Laboratories (USA) and the stainings were performed essentially after manufacturer's instructions. The specificity of the staining was controlled in parallel experiments by inhibiting lectin binding with specific oligo- and monosaccharides.
(§2) From a practical perspective stem cell research would be best served by the identification of target structures on cell surface. To investigate whether individual glycan structures we had identified would be accessible to reagents targeting them at the cell surface we performed lectin labelling of two candidate structure types. Lectins are proteins that recognize glycans with specificity to certain glycan structures also in hESC (Venable et al., 2005). To study the localization of glycan components in hESC, stem cell colonies grown on mouse feeder cell layers were labeled in vitro by fluorescein-labelled lectins (FIG. 2). […] Such glycans would thus be available for recognition by more specific glycan-recognizing reagents such as antibodies. In contrast, the cell surfaces were not labelled by Pisum sativum agglutinin (PSA) that recognizes α-mannosylated glycans (FIG. 2b).
The glycome profile data was used to design glycan-specific labeling reagents for hESC. The most interesting glycan types were chosen to study their expression profiles by lectin histochemistry as exemplified in FIG. 5 for the lectins that recognize either α2,3-sialylated (MAA-lectin, FIG. 5A.) binding to the hESC cells or α-mannosylated glycans (PSA-lectin, FIG. 5B.) binding to the surfaces of feeder cells (MEF). The binding of the lectin reagents was inhibited by specific carbohydrate inhibitors, sialylα2-lactose and mannose, respectively (FIG. 5C. and 5D.).

[2] = system: hESC lines FES29 and FES30; experiment: hESC culture on lectin-coated plates in mEF-conditioned media; format: cell-based, human; design: key to Growth: +++: cells attach and can grow; cells attach and can grow but less cells/slower growth than +++; +: only few cells attach, one split; −: no cells after p1, cannot be splitted; #: less cells attach and slower early growth; settings: for Growth: culture experiment in mEF-conditioned media; for growth of hESC on coated plates: mEF-conditioned media
From the text: FES 30 hESC line was used. hESCs were transferred from mEF to Matrigel™ and cultured according to the protocol found on the Geron Corporation website at: http://www.geron.com/showpage.asp?code=prodstprot
All passages were done using collagenase. The passages were also done using PBS without collagenase treatment.
The cells were transferred to ECA-coated 12-well plates (Corning) and cultured in mEF-conditioned media for 5-11 days, whereafter they were divided 1:2 or 3:4. RNA samples were extracted from a cell sample every second or third passage and analyzed for expression of stem cell and differentiation markers (FIG. 31).
The ECA (EY Laboratories, USA; L-5901-5) coating was performed as follows for 12 well plates. ECA lectin was stored frozen as stock solution of 1 mg/ml. It was thawed on ice and diluted as 100 μl lectin stock+600 μl PBS, sterile filtered (Millex-GV, SLGV 013 SL, 0.22 μm) in laminar hood. This solution, i.e. 100 μg/700 μl PBS solution was applied to each well and incubated overnight at +4 C. On the following day lectin solution was removed and wells were washed with 3×1 ml of sterile PBS.
(§3) hESC were cultured at least two passages feeder-free on Matrigel (BD Biosciences, Bedford, Mass., USA) before plating on lectin. Matrigel-culturing was continued side by side lectin-culturing as comparison. Cells were cultured during the whole experiment in standard Knockout™ DMEM media with 20% Knockout™ Serum Replacement and 8 ng/ml of recombinant basicFGF (all from Gibco/Invitrogen, Paisley, UK; Mikkola M. et al. BMC Dev. Biol. 6:40, 2006) conditioned on mouse feeder cells for 24 h. Cells were detached with collagenase IV while splitting.
(§4) Lectins were diluted in PBS and sterile filtered before applying on Nunclon cell culture plates (Nunc, Roskilde, Denmark). The amount of lectin was 27 μg/cm^2 and plates were incubated over night at +4° C. Before splitting cells on lectin wells were washed three times with PBS.

[3] = system: SSEA-4 enriched human embryonic stem cells (hESC); settings: Venable et al. 2005; cited from earlier work
hESC [4] = experiment: Short (5 days) hESC culture on ECA types and conjugates; format: cell-based, human; design: key: +++: many cells attached on day 5; ++: scattered cells on day 5; +: few cells left on day 5; −: no attached cells after day 5; settings: day 5
mouse feeder cell (mEF) = experiment: FITC-lectin and antibody labelling of mouse feeder cells, fluorescence microscopy; format: binding; settings: fixed cells
mouse feeder cells (MEF) = experiment: Fluorescein-labelled lectin staining of mouse feeder cells in hESC culture; format: binding; design: key: + present in cell surface; − not present in cell surface; settings: MEF cell surface
Protocol: as §1, §2
The glycome profile data was used to design glycan-specific labeling reagents for hESC. […]

[5] = system: human embryonic stem cell (hESC) lines FES 22 and FES 30; experiment: FITC-lectin and antibody labelling of hESC, fluorescence microscopy; format: binding
[6] = system: bone marrow derived mesenchymal stem cells (BM MSC); experiment: FITC-lectin staining of fixed BM MSC, fluorescence microscopy; format: binding, human
[7] = system: cord blood mononuclear cell (CB MNC); experiment: FACS analysis of FITC-lectin binding to cord blood mononuclear cells; design: species or system human; settings: seven CB MNC preparations
[8] = system: Human Bone marrow-derived mesenchymal stem cells (MSC); experiment: Flow cytometry of CD105, CD45, CD73, HLA-DR in MSC grown on lectins; format: cell-based; settings: MSC grown on lectin
Protocol: Briefly, bone marrow obtained during orthopedic surgery was cultured in Minimum Essential Alpha-Medium (α-MEM), supplemented with 20 mM HEPES, 10% FCS, 1× penicillin-streptomycin and 2 mM L-glutamine (all from Gibco). After a cell attachment period of 2 days the cells were washed with Ca2+ and Mg2+ free PBS (Gibco), and subcultured at a density of 2000-3000 cells/cm2 in the same media on 24-well chamber slides coated with lectin molecules. Cells were crown at 37° C. with 5% CO2, fresh media was changed twice a week until near confluence. MSCs were cultured on lectin coated well plates for five passages. MSC passages 5-10 were used in the experiment.
Proliferating MSCs in passage 5 were grown on different lectins for 5 days. Cells were washed with PBS and harvested into single cell suspensions by Versene solution. Detached cells were centrifuged at 600×g for five minutes at room temperature. Cell pellet was washed twice with 0.3% BSA-PBS, centrifuged at 600×g and resuspended in 0.3% BSA-PBS. Cells were placed in conical tubes in aliquots of 50 000 cells each. Cell aliquots were incubated with antibodies in dilution of 2 μl/10^5 cells for 30 minutes at +4° C. in the dark. After incubation cells were washed with 0.3% BSA-PBS, centrifuged and resuspended in 0.3% BSA-PBS.
Unlabeled cells and cells grown on plastic were used as controls. Antibody binding was detected by flow cytometry (FACSAria, Becton Dickinson). Data analysis was made with FACSDiva™ Flow Cytometry Software Version 5.02.

RUNX2 = experiment: Quantitative RT-PCR of RUNX2 in MSC grown on lectins; format: cell-based, human
From the text: (§5) Total cellular RNA from the BM derived mesenchymal stem cells grown for five passages on selected lectins was extracted by using RNeasy miniprep-kit (Qiagen, Chatsworth, Calif.) according to the manufacturers's instructions. RNA was then reverse transcribed to cDNA with High Capacity cDNA Reverse Transcription reagents according to manufacturers instructions (Applied Biosystems) and used as a template in TaqMan® PCR reaction. TaqMan® PCR reaction was used to estimate the quantitative levels of stem cell differentiation markers. TaqMan® PCR reaction performed in standard conditions using TaqMan® Universal Gene Expression Master Mix (Applied Biosystems) and Pre-developed Inventored Gene Expression Assays for FABP4 (Hs00609791_m1) and RUNX2 (Hs00231692_m1) (Applied Biosystems).
(§6) Real time quantitative PCR reactions were performed with the ABI PRISM 7000 Sequence Detector System (Applied Biosystem) in standard conditions. PCR amplifications were performed in a total volume of 50 μl, containing 1 μl cDNA sample. TaqMan® Universal Gene Expression Master Mix (Applied Biosystems) was used in all experiments. Pre-developed Inventored Gene Expression Assays for FABP4 (Hs00609791_m1) and RUNX2 (Hs00231692_m1) (Applied Biosystems) were used to estimate the quantitative levels of stem cell differentiation markers. Pre-developed TaqMan® assay reagents for endogenous control human TATA-box binding gene labeled with VIC reporter dye (Hs 999999_m19) was used for amplification of control gene.
(§7) PCR was started with 2 min at 50° C. and the initial 10 min denaturing temperature was 94° C., followed by a total of 40 cycles of 15 s of denaturing and 1 min of annealing and elongation at 60° C.

FABP4 = experiment: Quantitative RT-PCR of FABP4 in MSC grown on lectins; format: cell-based, human
From the text: as §5, §6, §7

hESC (FES29) = experiment: FACS of Tra-1-60 and SSEA-3 in hESC cultured on lectins or Matrigel; format: cell-based, human
Protocol: as §3, §4

[9] = MSC grown five passages on lectin
[10] = start point (UEA-1/DSA/Galectin 1 experiment)

## CC(=O)N[C@H]1[C@H]([C@H](O)[C@H](O)CO)O[C@@](O[C@H]2[C@@H](O)[C@@H](CO)O[C@@H](O[C@H]3[C@H](O)[C@@H](O)C(O)O[C@@H]3CO)[C@@H]2O)(C(=O)O)C[C@@H]1O (some centres unmarked) [3′-sialyllactose]
hESC [1]
  inhibition of lectin binding to hESC by carbohydrate: blocks MAA binding
hESC [1]; listed as α3′-sialyllactose
  inhibition of lectin binding to hESC by carbohydrate: inhibited

## O=C[C@@H](O)[C@@H](O)[C@H](O)[C@H](O)CO [D-mannose]
hESC [1]
  inhibition of lectin binding to hESC by carbohydrate: inhibited; also recorded: blocks PSA binding

## Galectin-1 in solution: Galectin-1 added in solution, not immobilized
[2]
  Growth: −
  growth of hESC on coated plates: could not support the cell growth

## PHA-E: Phaseolus vulgaris lectin recognizing N-glycan core epitope (bisecting GlcNAc)
[3]
  lectin binding to SSEA-4 enriched hESC: partially bind to hESC
[2]
  Growth: +++#
  growth of hESC on coated plates: weak

## PHA-L: Phaseolus vulgaris lectin
[3]
  lectin binding to SSEA-4 enriched hESC: partially bind to hESC

## rGal-1: rGal-1, presumably recombinant galectin-1, coating in short hESC culture
hESC [4]
  short (5 days) culting: −

B1: PNA: peanut lectin, Gal/GalNAc structures (protein, UniProt P02872 24-273, looked up)
Galactose-binding lectin: AETVSFNFNSFSEGNPAINFQGDVTVLSNGNIQLTNLNKVNSVGRVLYAMPVRIWSSATGNVASFLTSFSFEMKDIKDYDPADGIIFFIAPEDTQIPAGSIGGGTLGVSDTKGAGHFVGVEFDTYSNSEYNDPPTDHVGIDVNSVDSVKTVPWNSVSGAVVKVTVIYDSSTKTLSVAVTNDNGDITTIAQVVDLKAKLPERVKFGFSASGSLGGRQIHLIRSWSFTSTLITTTRRSIDNNEKKIMNMASA
Mouse feeder cell (mEF)
  labelling of mEF: absence of specific binding
hESC [1]; hESC cell surface
  lectin ligand profile, hESC: +
Mouse feeder cells (MEF)
  lectin ligand profile, MEF: −
[3]
  lectin binding to SSEA-4 enriched hESC: high binding percentage
[5]; fixed cells on mouse feeder layer
  labelling of hESC: Abundant labelling
[5]; hESC compared with mEF
  specific binding, hESC versus mEF: bound specifically to hESC but not to mEF
[6]; FITC-labelled lectin, cell surface of cultured BM MSC
  lectin binding / labelling of BM MSC: less intense labelling
[6]; sialidase treatment before lectin binding
  effect of sialidase treatment of the cells on lectin binding: also increased by sialidase treatment
[7]
  lectin binding to CB MNC: variable binding between CB samples

B2: Galectin-1: bovine Galectin-1, N-acetyllactosamine binding lectin (protein, UniProt P11116 2-135, looked up)
Galectin-1: ACGLVASNLNLKPGECLRVRGEVAADAKSFLLNLGKDDNNLCLHFNPRFNAHGDVNTIVCNSKDAGAWGAEQRESAFPFQPGSVVEVCISFNQTDLTIKLPDGYEFKFPNRLNLEAINYLSAGGDFKIKCVAFE
[8]
  CD 45: neg
  CD73: pos
  CD105: pos
  HLA-DR: 23.8%
RUNX2; [9]
  RUNX- Endogenous control gene avarage Δct: 2.76
RUNX2; RUNX
  Expression relative to plastic 2e − ΔΔCt: 0.31
RUNX2; RUNX, relative to plastic
  ΔCt − Δctplastic relative ΔΔCt: 1.87
FABP4; FABP
  Expression relative to plastic 2e − ΔΔCt: 12.85
FABP4; FABP, relative to plastic
  ΔCt − Δctplastic relative ΔΔCt: −1.86
FABP4; [9]
  FABP - Endogenous control gene avarage Δct: 5.24
[2]; FES29
  passages hESC cultured on lectin: 7 passages
[2]
  Growth: +++
  growth of hESC on coated plates: also effective
hESC (FES29); FES29, after 7 passages
  expression of SSEA-3: 32.3%
  expression of Tra-1-60: 21.6%
hESC (FES29); p7
  SSEA-3: 32.3
  Tra-1-60: 21.6
hESC (FES29); [10]
  SSEA-3: 89.2
  Tra-1-60: 69.6
